Assay results as given in patent US6020166, “Nucleic acid encoding an altered telomere repeat binding factor 2” (The Rockfeller University).

Columns and labels:
TRF1 purified from HeLa [1] = target: T1, TRF1 purified from HeLa (Homo sapiens, UniProt P54274 SEQ:1-439); assay: EMSA; bend 64-66 degrees; competed by TTAGGG plasmid; conditions: chain copies: 2 stated; label: 32P
T1 chain: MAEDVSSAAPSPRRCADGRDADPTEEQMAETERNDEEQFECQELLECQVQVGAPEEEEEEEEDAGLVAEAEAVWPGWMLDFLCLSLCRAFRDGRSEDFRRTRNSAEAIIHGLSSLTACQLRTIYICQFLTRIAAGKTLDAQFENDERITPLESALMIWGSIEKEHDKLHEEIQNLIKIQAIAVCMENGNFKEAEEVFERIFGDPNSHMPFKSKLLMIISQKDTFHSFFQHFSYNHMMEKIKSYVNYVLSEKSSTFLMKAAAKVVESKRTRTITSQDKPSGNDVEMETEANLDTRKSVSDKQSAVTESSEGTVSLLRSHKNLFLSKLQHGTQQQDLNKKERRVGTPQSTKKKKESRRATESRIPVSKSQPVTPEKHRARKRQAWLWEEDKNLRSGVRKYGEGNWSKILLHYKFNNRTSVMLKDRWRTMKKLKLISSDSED
Procedure: (§1) DNA bending assay: PCR primers were used to generate DNA fragments with the composition indicated in FIG. 9 using pTH3, pTH6, and pTH12 [Zhong et al., 1992, supra] as templates, which contain 3, 6, and 12 tandem TTAGGG repeats, respectively. The products were end-labelled with ^32P-γ-ATP and polynucleotide kinase and the labelled fragments were isolated by preparative acrylamide gel-electrophoresis. Gel-shift reactions with partially purified HeLa TRF1 were performed as described above and the migration of the complexes was analyzed as described by Ferrari et al. [Ferrari et al., 1992, supra], and Thompson and Landy [*Nucl. Acids Res.*, 16:9687–9705 (1988)].
(§2) Labeled DNA probes were incubated with purified HeLa TRF1 under conditions in which one TRF1 dimer binds per probe molecule [Zhong et al., 1992, supra] and the mobility of the resulting complexes was analyzed on native polyacrylamide gels. The permuted sets of fragments had the same electrophoretic mobility as expected from their equal lengths. […] As shown in FIG. 9B for the 6mer and 12mer probes, an effect of the position of the hTRF1 binding site within the probes was observed. Slower migrating complexes were obtained when the binding site for hTRF1 was located more centrally in the DNA molecule, consistent with the induction of DNA bending upon hTRF1 binding.

TRF1 purified from HeLa [2] = target: T1, TRF1 purified from HeLa; assay: EMSA; bend 57 and 59 degrees; competed by TTAGGG plasmid; conditions: chain copies: 2 stated; label: 32P
Procedure: as §1, §2

GFP-TRF1 = target: T2, GFP-TRF1 (Homo sapiens, UniProt P54274 SEQ:1-439); assay: EMSA; binds as homodimer; conditions: tags: N-terminal GFP; TRF1 start codon ATG to ATT; chain copies: 2 stated; label: 32P
T2 chain: T1 chain
Source text: (§3) Coupled in vitro transcription/translation: TRF1 deletion mutants used for the in vitro coupled transcription/translation experiments were cloned in the vector pET28(a) (Promega) in the NcoI and EcoRI sites using PCR-generated fragments. The GFP-TRF1 fusion product was cloned in pBluescriptKS+. PCR-directed mutagenesis was used to eliminate from this construct the start codon of the TRF1 gene by mutating it from ATG to ATT in order to suppress the occurrence of internal translation at this position. The GFP sequence was obtained from pS65T-C I (Clontech). Expression of TRF1 derivatives was achieved by using a rabbit reticulocyte lysate system (Promega) using reaction conditions essentially as described by the supplier. Briefly, between 0.2 to 1 µg of total plasmid DNA was used per 20 µl reaction containing T7 RNA polymerase in the presence of ^35S-methionine (to visualize products on SDS-PAGE) or without labeled amino acids (for gel-shift assays). After the transcription/translation reaction samples were diluted 1:5 with the addition of 80 µl of buffer D [Chong et al., 1995, supra]. Of this mixture, 0.5–5 µl was used in gel-shift reactions.
(§4) Gel-shift assays: Gel-shift assays were performed as described previously [Zhong et al., 1992, supra] using labeled restriction fragments as probes. […]

TRF1 derivative II = target: T3, TRF1 derivative II (Homo sapiens, UniProt P54274 SEQ:1-439); assay: EMSA; binds as homodimer; conditions: tags: N-terminal 43 aa polylinker-encoded addition; chain copies: 2 stated; label: 32P
T3 chain: T1 chain
Source text: as §3, §4

TRF1 full length = target: T4, TRF1 full length (Homo sapiens, UniProt P54274 SEQ:1-439); assay: EMSA; conditions: label: 32P
T4 chain: T1 chain
Source text: as §3, §4

TRF1 delta263-376 = target: T5, TRF1 delta263-376 (Homo sapiens, internal deletion 263-376); assay: EMSA; dimerization domain fused to Myb; conditions: label: 32P
T5 chain: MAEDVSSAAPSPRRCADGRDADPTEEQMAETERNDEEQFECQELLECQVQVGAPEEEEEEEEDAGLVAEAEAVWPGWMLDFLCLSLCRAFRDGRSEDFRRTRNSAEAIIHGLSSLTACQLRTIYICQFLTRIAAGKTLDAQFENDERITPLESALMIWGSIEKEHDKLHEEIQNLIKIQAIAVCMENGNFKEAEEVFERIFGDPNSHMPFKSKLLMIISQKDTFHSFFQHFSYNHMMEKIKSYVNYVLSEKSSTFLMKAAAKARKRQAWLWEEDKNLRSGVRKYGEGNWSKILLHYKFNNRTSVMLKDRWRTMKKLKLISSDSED
Source text: as §3, §4

TRF1 deltaN-376 = TRF1 deltaN-376 (Homo sapiens, UniProt P54274 SEQ:1-439, deletion of N-terminus to 376); assay: EMSA; Myb domain without dimerization domain; conditions: label: 32P
Source text: as §3, §4

TRF1 deltaN-28 = TRF1 deltaN-28 (Homo sapiens, UniProt P54274 SEQ:1-439, deletion of first 28 aa); assay: EMSA; activity unaffected; conditions: label: 32P
Source text: as §3, §4

TRF1 deltaN-46 = TRF1 deltaN-46 (Homo sapiens, UniProt P54274 SEQ:1-439, deletion of first 46 aa); assay: EMSA; activity unaffected; conditions: label: 32P
Source text: as §3, §4

TRF1 deltaN-196 = TRF1 deltaN-196 (Homo sapiens, UniProt P54274 SEQ:1-439, deletion of N-terminus to 196); assay: EMSA; lacks dimerization domain; conditions: label: 32P
Source text: as §3, §4

B1: [TTAGGG]6 permuted probes (dsDNA)
DNA 1: TTAGGGTTAGGGTTAGGGTTAGGGTTAGGGTTAGGG
DNA 2: CCCTAACCCTAACCCTAACCCTAACCCTAACCCTAA
**Q.** Does B1 bind (TRF1 purified from HeLa [1])?
**A.** Result: binds

B2: [TTAGGG]12 probe (142 bp pTH12 fragment) (dsDNA)
DNA 1: TTAGGGTTAGGGTTAGGGTTAGGGTTAGGGTTAGGGTTAGGGTTAGGGTTAGGGTTAGGGTTAGGGTTAGGG
DNA 2: CCCTAACCCTAACCCTAACCCTAACCCTAACCCTAACCCTAACCCTAACCCTAACCCTAACCCTAACCCTAA
**Q.** Does B2 bind (TRF1 purified from HeLa [2])?
**A.** Result: binds

**Q.** Does B2 bind (GFP-TRF1)?
**A.** Result: binds

**Q.** Does B2 bind (TRF1 derivative II)?
**A.** Result: binds

**Q.** Does B2 bind (TRF1 full length)?
**A.** Result: binds

**Q.** Does B2 bind (TRF1 delta263-376)?
**A.** Result: no binding

**Q.** Does B2 bind (TRF1 deltaN-376)?
**A.** Result: no binding

**Q.** Does B2 bind (TRF1 deltaN-28)?
**A.** Result: binds

**Q.** Does B2 bind (TRF1 deltaN-46)?
**A.** Result: binds

**Q.** Does B2 bind (TRF1 deltaN-196)?
**A.** Result: no binding
